Paper PMC10179534, “Maize Transcription Factor ZmHsf28 Positively Regulates Plant Drought Tolerance”

Biological target: ZmHsf28 (Zea mays, UniProt K7V9Y4 1-267)
Assay: EMSA; Chemiluminescence EMSA kit (Beyotime); buffer, salt, pH and temperature not stated; unlabeled probes as competitors
Conditions: protein: recombinant; tags: His (pET28a, Ni-NTA); chain copies: 3; blunt

Sequence of ZmHsf28 (K7V9Y4 entry or part of it): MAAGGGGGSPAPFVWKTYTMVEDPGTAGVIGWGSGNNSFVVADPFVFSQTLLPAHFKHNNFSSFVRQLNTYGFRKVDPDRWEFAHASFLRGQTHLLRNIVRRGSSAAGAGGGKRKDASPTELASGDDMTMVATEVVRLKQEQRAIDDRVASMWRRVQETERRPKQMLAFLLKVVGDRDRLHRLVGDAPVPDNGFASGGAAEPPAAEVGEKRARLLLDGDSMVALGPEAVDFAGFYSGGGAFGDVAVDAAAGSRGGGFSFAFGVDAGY

B1: pZmRD21 HSE probe (dsDNA)
DNA 1: TATCGGTTTTTTTAGAAGATATTATGGC
DNA 2: GCCATAATATCTTCTAAAAAAACCGATA
B1: binds.

B2: pZmZEP1 HSE probe (dsDNA)
DNA 1: GGGTGTTTTTCTGGAATCATGCA
DNA 2: TGCATGATTCCAGAAAAACACCC
B2: binds.

B3: pZmAOS1 HSE probe (dsDNA)
DNA 1: GTCAAGTCGGGTCTAGAAACTCATAGGCA
DNA 2: TGCCTATGAGTTTCTAGACCCGACTTGAC
B3: binds.

B4: pZmCAT1 HSE probe (dsDNA)
DNA 1: GAAGATGAGCTTCTAGGACTGTTAGA
DNA 2: TCTAACAGTCCTAGAAGCTCATCTTC
B4: binds.

B5: pZmAAO4 HSE probe (dsDNA)
DNA 1: TCTTAATCTCCTAGAAAAATACGGT
DNA 2: ACCGTATTTTTCTAGGAGATTAAGA
B5: binds.
